Key:
eIF4G [1] = target: T1, eIF4G (S. cerevisiae, UniProt P39935 1-952; P07260 1-213); test: global fit of RNA unwinding time courses to a thermodynamic model; K1/2 of a binding step calculated with the model of Figure 4A; RNA bound to the binder before the step, no ATP; conditions: both partners purified
T1 construct: eIF4G1, scaffolding protein of translation initiation, S. cerevisiae; present in the preparations of eIF4G; the model treats G as one unit; also called eIF4G1; S•Tag-eIF4G; source: recombinant, expression and purification previously described (Hilliker et al., 2011)
T1 sequence (looked up) 1: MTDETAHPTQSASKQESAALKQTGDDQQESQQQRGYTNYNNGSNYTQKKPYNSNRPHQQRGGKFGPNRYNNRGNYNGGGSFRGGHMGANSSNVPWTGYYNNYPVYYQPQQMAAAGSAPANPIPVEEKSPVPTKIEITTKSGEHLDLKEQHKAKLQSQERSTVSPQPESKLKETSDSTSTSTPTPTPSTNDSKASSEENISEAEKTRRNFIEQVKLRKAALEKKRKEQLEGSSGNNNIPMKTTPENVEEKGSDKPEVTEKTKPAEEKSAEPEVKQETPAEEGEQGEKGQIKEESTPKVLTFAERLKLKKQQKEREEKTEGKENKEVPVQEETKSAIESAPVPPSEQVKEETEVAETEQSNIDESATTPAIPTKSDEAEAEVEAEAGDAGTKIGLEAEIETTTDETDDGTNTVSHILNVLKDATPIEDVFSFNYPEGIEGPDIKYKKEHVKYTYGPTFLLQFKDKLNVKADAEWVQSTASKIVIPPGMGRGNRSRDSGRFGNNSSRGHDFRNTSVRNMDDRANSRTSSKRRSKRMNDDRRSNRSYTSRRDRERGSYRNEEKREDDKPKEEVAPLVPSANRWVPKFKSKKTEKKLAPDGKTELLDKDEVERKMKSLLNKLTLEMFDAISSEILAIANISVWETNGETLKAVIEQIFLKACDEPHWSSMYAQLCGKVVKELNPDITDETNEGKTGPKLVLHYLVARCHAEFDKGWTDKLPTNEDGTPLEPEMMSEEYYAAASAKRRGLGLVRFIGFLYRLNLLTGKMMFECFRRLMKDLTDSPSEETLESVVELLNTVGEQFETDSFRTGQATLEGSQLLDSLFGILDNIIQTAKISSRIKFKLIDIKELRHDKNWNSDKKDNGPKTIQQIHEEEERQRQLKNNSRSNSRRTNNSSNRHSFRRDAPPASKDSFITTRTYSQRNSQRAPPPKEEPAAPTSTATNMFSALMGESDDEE
T1 sequence (looked up) 2: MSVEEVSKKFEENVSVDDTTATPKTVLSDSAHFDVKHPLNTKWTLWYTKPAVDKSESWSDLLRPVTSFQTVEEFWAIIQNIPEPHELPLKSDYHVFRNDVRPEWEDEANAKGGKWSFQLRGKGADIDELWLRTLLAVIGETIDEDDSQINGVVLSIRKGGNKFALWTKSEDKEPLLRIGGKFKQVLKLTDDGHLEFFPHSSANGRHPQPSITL

Ded1p-eIF4G complex [2] = target: T2, Ded1p-eIF4G complex (S. cerevisiae, UniProt P06634 1-604; P39935 1-952; P07260 1-213); test: as above; conditions: both partners purified
T2 construct: Ded1p, S. cerevisiae, wild type, as Wm1; eIF4G1, S. cerevisiae, as in Wm3; eIF4E, S. cerevisiae, as in Wm3; present in the preparations of eIF4G; State of the thermodynamic model; also called DG; DTG; source: formed from the purified recombinant proteins; copies: + +

[3] = target: HA-tagged Ded1p (His6-Ded1p-HA3) (S. cerevisiae), P06634; test: pull-down; Ded1p-HA held on anti-HA antibody and Protein G Dynabeads; 300 nM S•Tag-eIF4G or 1500 nM eIF4A added alone; 20 µg/mL RNases A,B; 8°C overnight; washed with HRB-Na100 buffer; Western blot; conditions: remark: other sources report otherwise
[4] = target: HA-tagged Ded1p (His6-Ded1p-HA3) (S. cerevisiae), P06634; test: pull-down; Ded1p-HA held on anti-HA antibody and Protein G Dynabeads; 300 nM S•Tag-eIF4G and 1500 nM eIF4A added together; 20 µg/mL RNases A,B; 8°C overnight; washed with HRB-Na100 buffer; Western blot; conditions: remark: other sources report otherwise
eIF4G [5] = target: T1, eIF4G; test: global fit of RNA unwinding time courses to a thermodynamic model; K1/2 of a binding step calculated with the model of Figure 4A (Kintek Global Explorer; 16 bp duplex, 25 nt 3' overhang); step without RNA and without ATP; conditions: both partners purified
Ded1p-eIF4G complex [6] = target: T2, Ded1p-eIF4G complex; test: as above; conditions: both partners purified

Sequence of HA-tagged Ded1p (His6-Ded1p-HA3) (S. cerevisiae), P06634 (P06634 whole entry): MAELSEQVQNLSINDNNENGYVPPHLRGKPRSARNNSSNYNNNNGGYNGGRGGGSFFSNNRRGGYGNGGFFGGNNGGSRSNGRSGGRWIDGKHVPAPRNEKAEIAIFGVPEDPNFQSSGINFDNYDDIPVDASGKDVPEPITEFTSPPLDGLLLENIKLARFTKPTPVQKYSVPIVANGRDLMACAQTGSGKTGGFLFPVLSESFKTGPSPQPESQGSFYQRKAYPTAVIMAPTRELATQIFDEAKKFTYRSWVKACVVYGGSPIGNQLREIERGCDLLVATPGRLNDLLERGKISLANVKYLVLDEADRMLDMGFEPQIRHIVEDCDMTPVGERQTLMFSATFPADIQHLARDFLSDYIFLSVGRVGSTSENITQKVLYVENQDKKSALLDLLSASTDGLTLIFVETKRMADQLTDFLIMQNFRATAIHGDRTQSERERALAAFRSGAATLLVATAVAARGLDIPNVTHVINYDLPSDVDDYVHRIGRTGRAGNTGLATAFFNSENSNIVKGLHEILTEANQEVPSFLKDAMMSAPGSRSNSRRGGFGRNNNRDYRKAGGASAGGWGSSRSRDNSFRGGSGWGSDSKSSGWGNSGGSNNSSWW
T2 sequence (P06634 whole entry, one chain of several): as the sequence (P06634 whole entry) above

B1: eIF4A (enzyme, S. cerevisiae, UniProt P10081 1-395, looked up)
chain: MSEGITDIEESQIQTNYDKVVYKFDDMELDENLLRGVFGYGFEEPSAIQQRAIMPIIEGHDVLAQAQSGTGKTGTFSIAALQRIDTSVKAPQALMLAPTRELALQIQKVVMALAFHMDIKVHACIGGTSFVEDAEGLRDAQIVVGTPGRVFDNIQRRRFRTDKIKMFILDEADEMLSSGFKEQIYQIFTLLPPTTQVVLLSATMPNDVLEVTTKFMRNPVRILVKKDELTLEGIKQFYVNVEEEEYKYECLTDLYDSISVTQAVIFCNTRRKVEELTTKLRNDKFTVSAIYSDLPQQERDTIMKEFRSGSSRILISTDLLARGIDVQQVSLVINYDLPANKENYIHRIGRGGRFGRKGVAINFVTNEDVGAMRELEKFYSTQIEELPSDIATLLN
notes: eIF4A, DEAD-box RNA helicase, S. cerevisiae, wild type; also called wild-type yeast eIF4A; source: recombinant, purified as described (Hilliker et al., 2011)
Binder B1 has a Kd (eIF4G [1]) of 25 nM, a Kd (Ded1p-eIF4G complex [2]) of 0.003 nM and a relative band intensity (pull-down compared to input) [3] of 96%. For the same binder, the relative band intensity (pull-down compared to input), with eIF4G present [4] was 25%, the Kd (eIF4G [5]) was 500 nM and the Kd (Ded1p-eIF4G complex [6]) was 0.14 nM.

Reference: publication PMC4990422, “Coupling between the DEAD-box RNA helicases Ded1p and eIF4A” (eLife, 2016)
